# Where no end group is shown, it is not given here. [ ]: non-standard residue; d: D form. The star is where a group is joined. Bip(2'-Et-4'-OMe) = CCc1cc(OC)ccc1-c1ccc(C[C@H](N)C(=O)O)cc1; Arg(NO2) = N=C(NCCC[C@H](N)C(=O)O)N[N+](=O)[O-]; αMePhe(2,6-F2) = C[C@](N)(Cc1c(F)cccc1F)C(=O)O; αMePhe(2-F) = C[C@](N)(Cc1ccccc1F)C(=O)O; hhPhe = N[C@@H](CCCc1ccccc1)C(=O)O; hArg = N=C(N)NCCCC[C@H](N)C(=O)O; hCit = NC(=O)NCCCC[C@H](N)C(=O)O; αMeF = C[C@](N)(Cc1ccccc1)C(=O)O; Cit = NC(=O)NCCC[C@H](N)C(=O)O; NMeM = CN[C@@H](CCSC)C(=O)O; Decanoyl = CCCCCCCCCC(=O)*; Ac6c = NC1(C(=O)O)CCCCC1; Nle = CCCC[C@H](N)C(=O)O; Orn = NCCC[C@H](N)C(=O)O; Ac5c = NC1(C(=O)O)CCCC1; Ac3c = NC1(C(=O)O)CC1; Aib = CC(C)(N)C(=O)O
# T1: rat PTH-1R (rat PTHR endogenously expressed on UMR-106 rat osteosarcoma cells) (rat, UniProt P25961 27-591)
# T1 sequence (looked up): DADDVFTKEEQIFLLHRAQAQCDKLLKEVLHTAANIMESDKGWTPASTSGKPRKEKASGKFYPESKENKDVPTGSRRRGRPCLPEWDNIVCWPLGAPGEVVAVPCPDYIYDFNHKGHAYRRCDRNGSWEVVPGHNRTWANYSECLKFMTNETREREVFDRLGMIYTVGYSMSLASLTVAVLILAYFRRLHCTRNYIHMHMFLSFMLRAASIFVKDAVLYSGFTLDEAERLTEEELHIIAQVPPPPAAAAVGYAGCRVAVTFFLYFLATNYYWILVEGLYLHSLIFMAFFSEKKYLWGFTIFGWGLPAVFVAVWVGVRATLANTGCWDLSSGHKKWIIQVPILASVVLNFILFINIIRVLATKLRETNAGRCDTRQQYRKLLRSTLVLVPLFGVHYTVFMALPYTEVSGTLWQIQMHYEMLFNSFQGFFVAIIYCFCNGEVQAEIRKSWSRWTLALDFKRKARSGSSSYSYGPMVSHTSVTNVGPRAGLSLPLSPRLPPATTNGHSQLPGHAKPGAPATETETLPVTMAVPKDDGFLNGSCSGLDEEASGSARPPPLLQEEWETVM
# Biological target: T1, rat PTH-1R (rat PTHR endogenously …)
# Assay: cell-based or functional assay
Binder,"cAMP released with respect to control, 1 nM peptide, UMR-106 cells","cAMP released with respect to control, 10 nM peptide, UMR-106 cells","cAMP released with respect to control, 100 nM peptide, UMR-106 cells"
"[Ac5c]V[Aib]EIQ[αMePhe(2,6-F2)][Nle]HQ[hArg]A[Cit][Bip(2'-Et-4'-OMe)][hhPhe] [Seq. ID. 813]",82 percent of control,109 percent of control,110 percent of control
[Ac5c]V[Aib]EIQLMHQ[hArg][Aib]K[αMeF] [Seq. ID. 20],79 percent of control,111 percent of control,121 percent of control
"[Ac5c]V[Aib]EIQL[Nle]HQ[αMePhe(2,6-F2)]A[Aib][Bip(2'-Et-4'-OMe)][hhPhe] [Seq. ID. 799]",38 percent of control,99 percent of control,106 percent of control
[Aib]V[Ac5c]EIQ[αMePhe(2-F)][Nle]HQ[hArg]AK[αMeF] [Seq. ID. 30],19 percent of control,51 percent of control,80 percent of control
"[Aib]V[Aib]EIQ[αMePhe(2,6-F2)][Nle]HQ[hCit][Aib][Arg(NO2)][αMePhe(2,6-F2)] [Seq. ID. 470]",36 percent of control,88 percent of control,116 percent of control
[Ac5c]V[Aib]EIQL[Nle]HQ[hCit]A[Cit][Bip(2'-Et-4'-OMe)][hhPhe] [Seq. ID. 781],16 percent of control,57 percent of control,75 percent of control
"[Ac3c]V[Aib]EIQ[αMePhe(2,6-F2)][Nle]HQ[hArg]A[Arg(NO2)][Bip(2'-Et-4'-OMe)][hhPhe] [Seq. ID. 694]",19 percent of control,64 percent of control,80 percent of control
"[Aib]V[Aib]EIQ[αMePhe(2-F)][Nle]HQ[αMePhe(2,6-F2)][Aib][αMePhe(2,6-F2)][αMePhe(2,6-F2)] [Seq. ID. 514]",19 percent of control,64 percent of control,80 percent of control
SVSEIQLMHNLGKHLNSMERVEWLRKKLQDVHNF [PTH (1-34)],41 percent of control,97 percent of control,100 percent of control
[Ac5c]V[Aib]EIQ[αMePhe(2-F)][Nle]HQ[Aib][Aib][Cit][αMePhe(2-F)] [Seq. ID. 540],16 percent of control,57 percent of control,75 percent of control
[Ac3c]V[Ac3c]EIQLMHQ[hArg]AK[Bip(2'-Et-4'-OMe)][hhPhe] [Seq. ID. 609],39 percent of control,101 percent of control,120 percent of control
[Ac3c]V[Aib]EIQL[NMeM]HQ[hArg]AK(Decanoyl)[Bip(2'-Et-4'-OMe)] [Seq. ID. 678],48 percent of control,102 percent of control,112 percent of control
[Aib]V[Ac6c]EIQL[Nle]HQ[hArg][Aib]K[αMeF] [Seq. ID. 23],12 percent of control,41 percent of control,69 percent of control
"[Ac3c]V[Aib]EIQ[αMePhe(2-F)][Nle]HQ[hArg]A[Arg(NO2)][αMePhe(2,6-F2)][hhPhe] [Seq. ID. 712]",15 percent of control,54 percent of control,69 percent of control
"[Aib]V[Aib]EIQ[αMePhe(2,6-F2)][Nle]HQ[αMePhe(2,6-F2)]A[Aib][αMePhe(2,6-F2)] [Seq. ID. 501]",28 percent of control,71 percent of control,87 percent of control
[Ac5c]V[Aib]EIQL[Nle]HQ[Orn]A[Aib][Bip(2'-Et-4'-OMe)][hhPhe] [Seq. ID. 751],34 percent of control,88 percent of control,116 percent of control
"[Aib]V[Aib]EIQ[αMePhe(2,6-F2)][Nle]HQ[αMePhe(2,6-F2)][Aib][Cit][αMePhe(2,6-F2)] [Seq. ID. 486]",34 percent of control,82 percent of control,104 percent of control
[Aib]V[Aib]EIQ[αMePhe(2-F)][Nle]HQ[Aib]A[Aib][αMePhe(2-F)] [Seq. ID. 553],38 percent of control,98 percent of control,116 percent of control
"[Aib]V[Aib]EIQ[αMePhe(2-F)][Nle]HQ[αMePhe(2,6-F2)]A[Arg(NO2)][αMePhe(2-F)] [Seq. ID. 521]",21 percent of control,51 percent of control,69 percent of control
[Ac5c]V[Ac3c]EIQL[Nle]HQ[hArg]AK(Decanoyl)[Bip(2'-Et-4'-OMe)][hhPhe] [Seq. ID. 637],36 percent of control,98 percent of control,110 percent of control
[Ac5c]V[Aib]EIQL[Nle]HQ[hArg]A[Cit][Bip(2'-Et-4'-OMe)][hhPhe] [Seq. ID. 733],36 percent of control,98 percent of control,110 percent of control
"[Aib]V[Aib]EIQ[αMePhe(2,6-F2)][Nle]HQ[Aib][Aib][Arg(NO2)][αMePhe(2,6-F2)] [Seq. ID. 598]",38 percent of control,79 percent of control,119 percent of control
"[Ac5c]V[Aib]EIQ[αMePhe(2,6-F2)][Nle]HQ[αMePhe(2,6-F2)]A[Cit][αMePhe(2-F)] [Seq. ID. 479]",48 percent of control,99 percent of control,112 percent of control
[Aib]V[Aib]EIQL[Nle]HQ[hArg]AK[Bip(2'-Et-4'-OMe)] [Seq. ID. 647],56 percent of control,101 percent of control,126 percent of control
